# From US20230287598A1 (TAURUS BIOSCIENCES, published 2023)
# T1: CXCR1 (UniProt P25024 1-350, limits assumed)
# T1 construct: whole, on cells; DiscoveRx PathHunter cell line; any reporter tag on the receptor is not described; also called CXCR1 receptor; CXCR1-U2OS
# T1 sequence (looked up): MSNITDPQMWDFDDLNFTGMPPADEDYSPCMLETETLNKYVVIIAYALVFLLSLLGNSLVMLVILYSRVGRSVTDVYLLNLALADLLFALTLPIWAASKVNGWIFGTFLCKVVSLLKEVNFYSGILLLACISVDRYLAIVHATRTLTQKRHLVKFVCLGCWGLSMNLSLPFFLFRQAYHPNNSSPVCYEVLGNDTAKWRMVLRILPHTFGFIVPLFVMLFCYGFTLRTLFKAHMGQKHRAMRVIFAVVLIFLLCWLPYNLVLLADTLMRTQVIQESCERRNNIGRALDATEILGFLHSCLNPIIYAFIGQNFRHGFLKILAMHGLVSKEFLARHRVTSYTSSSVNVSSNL
# Biological target: T1, CXCR1
# Test: flow cytometry, supernatant at 5 nM IgG
row,Binder,Specific Binding (CXCR1-Cell median AFU / Parental Cell median AFU)
1,"VH4-34+CDR3-IL8_CDR1-Cow_CDR2-E50S_Q5RQ6E / VL1-51 S2A, T5N, P8S, A12G, A13S, P14L, K46R, L47T, D51G, N52D, N53T, K54S, P56A IgG (antibody) VH: QVQLREWGAGLLKPSETLSLTCTASGFSLSDKAVGWIRQPPGKGLEWIGSINHSGSTNYNPSLKSRVTISVDTSKNQFSLKLSSVTAADTAVYYCTSVHQETKKYQSPRSAKELRCQCIKTYSKPFHPKFIKELRVIESGPHCANTEIIVKLSDGRELCLDPKENWVQRVVEKFLKRAENSGSGSYTYNYEWHVDVWGQGLLVTVSS light: QAVLNQPSSVSGSLGQKVTISCSGSSSNIGNNYVSWYQQLPGTAPRTLIYGDTSRASGIPDRFSGSKSGTSATLGITGLQTGDEADYYCASAEDSSSNAVFGSGTTLTVLGQPKAAPSVTLFPPSSEELQANKATLVCLISDFYPGAVTVAWKADSSPVKAGVETTTPSKQSNNKYAASSYLSLTPEQWKSHRSYSCQVTHEGSTVEKTVAPTECS",2
2,"VH4-34+CDR3-IL8_CDR1-Cow_Q5RQ6E / VL1-51 S2A, T5N, P8S, A12G, A13S, P14L, K46R, L47T, D51G, N52D, N53T IgG (antibody, also called BID 43; VH4-34 MutF IL-8 5R6E CD1cow) VH: QVQLREWGAGLLKPSETLSLTCTASGFSLSDKAVGWIRQPPGKGLEWIGEINHSGSTNYNPSLKSRVTISVDTSKNQFSLKLSSVTAADTAVYYCTSVHQETKKYQSPRSAKELRCQCIKTYSKPFHPKFIKELRVIESGPHCANTEIIVKLSDGRELCLDPKENWVQRVVEKFLKRAENSGSGSYTYNYEWHVDVWGQGLLVTVSS light: QAVLNQPSSVSGSLGQKVTISCSGSSSNIGNNYVSWYQQLPGTAPRTLIYGDTKRPSGIPDRFSGSKSGTSATLGITGLQTGDEADYYCASAEDSSSNAVFGSGTTLTVLGQPKAAPSVTLFPPSSEELQANKATLVCLISDFYPGAVTVAWKADSSPVKAGVETTTPSKQSNNKYAASSYLSLTPEQWKSHRSYSCQVTHEGSTVEKTVAPTECS",10
3,"VH4-34+CDR3-IL8_CDR1-G31DY32K_CDR2-E50S_Q5RQ6E / VL1-51 S2A, T5N, P8S, A12G, A13S, P14L, K46R, L47T, D51G, N52D, N53T, K54S, P56A IgG (antibody) VH: QVQLREWGAGLLKPSETLSLTCAVYGGSFSDKYWSWIRQPPGKGLEWIGSINHSGSTNYNPSLKSRVTISVDTSKNQFSLKLSSVTAADTAVYYCTSVHQETKKYQSPRSAKELRCQCIKTYSKPFHPKFIKELRVIESGPHCANTEIIVKLSDGRELCLDPKENWVQRVVEKFLKRAENSGSGSYTYNYEWHVDVWGQGLLVTVSS light: QAVLNQPSSVSGSLGQKVTISCSGSSSNIGNNYVSWYQQLPGTAPRTLIYGDTSRASGIPDRFSGSKSGTSATLGITGLQTGDEADYYCASAEDSSSNAVFGSGTTLTVLGQPKAAPSVTLFPPSSEELQANKATLVCLISDFYPGAVTVAWKADSSPVKAGVETTTPSKQSNNKYAASSYLSLTPEQWKSHRSYSCQVTHEGSTVEKTVAPTECS",3
4,"VH4-34+CDR3-IL8_CDR1-Cow_CDR2-E50S_Q5RQ6E / VL1-51 I29V, N32G, K46R, L47T, D51G, N52D, N53T, K54S, P56A IgG (antibody) VH: QVQLREWGAGLLKPSETLSLTCTASGFSLSDKAVGWIRQPPGKGLEWIGSINHSGSTNYNPSLKSRVTISVDTSKNQFSLKLSSVTAADTAVYYCTSVHQETKKYQSPRSAKELRCQCIKTYSKPFHPKFIKELRVIESGPHCANTEIIVKLSDGRELCLDPKENWVQRVVEKFLKRAENSGSGSYTYNYEWHVDVWGQGLLVTVSS light: QSVLTQPPSVSAAPGQKVTISCSGSSSNVGNGYVSWYQQLPGTAPRTLIYGDTSRASGIPDRFSGSKSGTSATLGITGLQTGDEADYYCASAEDSSSNAVFGSGTTLTVLGQPKAAPSVTLFPPSSEELQANKATLVCLISDFYPGAVTVAWKADSSPVKAGVETTTPSKQSNNKYAASSYLSLTPEQWKSHRSYSCQVTHEGSTVEKTVAPTECS",2
5,"VH4-34+CDR3-IL8_CDR1-G31DY32K_CDR2-E50S_Q5RQ6E / VL1-51 S2A, T5N, P8S, A12G, A13S, P14L, D51G, N52D, N53T IgG (antibody) VH: QVQLREWGAGLLKPSETLSLTCAVYGGSFSDKYWSWIRQPPGKGLEWIGSINHSGSTNYNPSLKSRVTISVDTSKNQFSLKLSSVTAADTAVYYCTSVHQETKKYQSPRSAKELRCQCIKTYSKPFHPKFIKELRVIESGPHCANTEIIVKLSDGRELCLDPKENWVQRVVEKFLKRAENSGSGSYTYNYEWHVDVWGQGLLVTVSS light: QAVLNQPSSVSGSLGQKVTISCSGSSSNIGNNYVSWYQQLPGTAPKLLIYGDTKRPSGIPDRFSGSKSGTSATLGITGLQTGDEADYYCASAEDSSSNAVFGSGTTLTVLGQPKAAPSVTLFPPSSEELQANKATLVCLISDFYPGAVTVAWKADSSPVKAGVETTTPSKQSNNKYAASSYLSLTPEQWKSHRSYSCQVTHEGSTVEKTVAPTECS",1
6,"VH4-34+CDR3-IL8_CDR1-Cow_CDR2-E50S_Q5RQ6E / VL1-51 I29V, N32G, K46R, L47T, D51G, N52D, N53T IgG (antibody) VH: QVQLREWGAGLLKPSETLSLTCTASGFSLSDKAVGWIRQPPGKGLEWIGSINHSGSTNYNPSLKSRVTISVDTSKNQFSLKLSSVTAADTAVYYCTSVHQETKKYQSPRSAKELRCQCIKTYSKPFHPKFIKELRVIESGPHCANTEIIVKLSDGRELCLDPKENWVQRVVEKFLKRAENSGSGSYTYNYEWHVDVWGQGLLVTVSS light: QSVLTQPPSVSAAPGQKVTISCSGSSSNVGNGYVSWYQQLPGTAPRTLIYGDTKRPSGIPDRFSGSKSGTSATLGITGLQTGDEADYYCASAEDSSSNAVFGSGTTLTVLGQPKAAPSVTLFPPSSEELQANKATLVCLISDFYPGAVTVAWKADSSPVKAGVETTTPSKQSNNKYAASSYLSLTPEQWKSHRSYSCQVTHEGSTVEKTVAPTECS",1
7,"VH4-34+CDR3-IL8_CDR1-Cow_CDR2-Cow_Q5RQ6E / VL1-51 S2A, T5N, P8S, A12G, A13S, P14L, D51G, N52D, N53T IgG (antibody) VH: QVQLREWGAGLLKPSETLSLTCTASGFSLSDKAVGWIRQPPGKGLEWLGSIDTGGNTGYNPSLKSRVTISVDTSKNQFSLKLSSVTAADTAVYYCTSVHQETKKYQSPRSAKELRCQCIKTYSKPFHPKFIKELRVIESGPHCANTEIIVKLSDGRELCLDPKENWVQRVVEKFLKRAENSGSGSYTYNYEWHVDVWGQGLLVTVSS light: QAVLNQPSSVSGSLGQKVTISCSGSSSNIGNNYVSWYQQLPGTAPKLLIYGDTKRPSGIPDRFSGSKSGTSATLGITGLQTGDEADYYCASAEDSSSNAVFGSGTTLTVLGQPKAAPSVTLFPPSSEELQANKATLVCLISDFYPGAVTVAWKADSSPVKAGVETTTPSKQSNNKYAASSYLSLTPEQWKSHRSYSCQVTHEGSTVEKTVAPTECS",4
8,"VH4-34+CDR3-IL8_CDR1-Cow_Q5RQ6E / VL1-51 I29V, N32G, K46R, L47T, D51G, N52D, N53T, K54S, P56A IgG (antibody) VH: QVQLREWGAGLLKPSETLSLTCTASGFSLSDKAVGWIRQPPGKGLEWIGEINHSGSTNYNPSLKSRVTISVDTSKNQFSLKLSSVTAADTAVYYCTSVHQETKKYQSPRSAKELRCQCIKTYSKPFHPKFIKELRVIESGPHCANTEIIVKLSDGRELCLDPKENWVQRVVEKFLKRAENSGSGSYTYNYEWHVDVWGQGLLVTVSS light: QSVLTQPPSVSAAPGQKVTISCSGSSSNVGNGYVSWYQQLPGTAPRTLIYGDTSRASGIPDRFSGSKSGTSATLGITGLQTGDEADYYCASAEDSSSNAVFGSGTTLTVLGQPKAAPSVTLFPPSSEELQANKATLVCLISDFYPGAVTVAWKADSSPVKAGVETTTPSKQSNNKYAASSYLSLTPEQWKSHRSYSCQVTHEGSTVEKTVAPTECS",2
9,"VH4-34+CDR3-IL8_CDR1-Cow_CDR2-Cow_Q5RQ6E / VL1-51 S2A, T5N, P8S, A12G, A13S, P14L, K46R, L47T, D51G, N52D, N53T, K54S, P56A IgG (antibody) VH: QVQLREWGAGLLKPSETLSLTCTASGFSLSDKAVGWIRQPPGKGLEWLGSIDTGGNTGYNPSLKSRVTISVDTSKNQFSLKLSSVTAADTAVYYCTSVHQETKKYQSPRSAKELRCQCIKTYSKPFHPKFIKELRVIESGPHCANTEIIVKLSDGRELCLDPKENWVQRVVEKFLKRAENSGSGSYTYNYEWHVDVWGQGLLVTVSS light: QAVLNQPSSVSGSLGQKVTISCSGSSSNIGNNYVSWYQQLPGTAPRTLIYGDTSRASGIPDRFSGSKSGTSATLGITGLQTGDEADYYCASAEDSSSNAVFGSGTTLTVLGQPKAAPSVTLFPPSSEELQANKATLVCLISDFYPGAVTVAWKADSSPVKAGVETTTPSKQSNNKYAASSYLSLTPEQWKSHRSYSCQVTHEGSTVEKTVAPTECS",2
10,"VH4-34+CDR3-IL8_CDR1-Cow_CDR2-E50S_Q5RQ6E / VL1-51 S2A, T5N, P8S, A12G, A13S, P14L, D51G, N52D, N53T IgG (antibody) VH: QVQLREWGAGLLKPSETLSLTCTASGFSLSDKAVGWIRQPPGKGLEWIGSINHSGSTNYNPSLKSRVTISVDTSKNQFSLKLSSVTAADTAVYYCTSVHQETKKYQSPRSAKELRCQCIKTYSKPFHPKFIKELRVIESGPHCANTEIIVKLSDGRELCLDPKENWVQRVVEKFLKRAENSGSGSYTYNYEWHVDVWGQGLLVTVSS light: QAVLNQPSSVSGSLGQKVTISCSGSSSNIGNNYVSWYQQLPGTAPKLLIYGDTKRPSGIPDRFSGSKSGTSATLGITGLQTGDEADYYCASAEDSSSNAVFGSGTTLTVLGQPKAAPSVTLFPPSSEELQANKATLVCLISDFYPGAVTVAWKADSSPVKAGVETTTPSKQSNNKYAASSYLSLTPEQWKSHRSYSCQVTHEGSTVEKTVAPTECS",2
11,"VH4-34+CDR3-IL8_CDR1-Cow_Q5RQ6E / VL1-51 S2A, T5N, P8S, A12G, A13S, P14L, K46R, L47T, D51G, N52D, N53T, K54S, P56A IgG (antibody) VH: QVQLREWGAGLLKPSETLSLTCTASGFSLSDKAVGWIRQPPGKGLEWIGEINHSGSTNYNPSLKSRVTISVDTSKNQFSLKLSSVTAADTAVYYCTSVHQETKKYQSPRSAKELRCQCIKTYSKPFHPKFIKELRVIESGPHCANTEIIVKLSDGRELCLDPKENWVQRVVEKFLKRAENSGSGSYTYNYEWHVDVWGQGLLVTVSS light: QAVLNQPSSVSGSLGQKVTISCSGSSSNIGNNYVSWYQQLPGTAPRTLIYGDTSRASGIPDRFSGSKSGTSATLGITGLQTGDEADYYCASAEDSSSNAVFGSGTTLTVLGQPKAAPSVTLFPPSSEELQANKATLVCLISDFYPGAVTVAWKADSSPVKAGVETTTPSKQSNNKYAASSYLSLTPEQWKSHRSYSCQVTHEGSTVEKTVAPTECS",3
12,"VH4-34+CDR3-IL8_CDR1-Cow_Q5RQ6E / VL1-51 I29V, N32G, K46R, L47T, D51G, N52D, N53T IgG (antibody) VH: QVQLREWGAGLLKPSETLSLTCTASGFSLSDKAVGWIRQPPGKGLEWIGEINHSGSTNYNPSLKSRVTISVDTSKNQFSLKLSSVTAADTAVYYCTSVHQETKKYQSPRSAKELRCQCIKTYSKPFHPKFIKELRVIESGPHCANTEIIVKLSDGRELCLDPKENWVQRVVEKFLKRAENSGSGSYTYNYEWHVDVWGQGLLVTVSS light: QSVLTQPPSVSAAPGQKVTISCSGSSSNVGNGYVSWYQQLPGTAPRTLIYGDTKRPSGIPDRFSGSKSGTSATLGITGLQTGDEADYYCASAEDSSSNAVFGSGTTLTVLGQPKAAPSVTLFPPSSEELQANKATLVCLISDFYPGAVTVAWKADSSPVKAGVETTTPSKQSNNKYAASSYLSLTPEQWKSHRSYSCQVTHEGSTVEKTVAPTECS",1
